{
  "source": "patent US20260124313A1",
  "about": "“SITE-SPECIFIC COVALENT LIGATION OF HUMAN SERUM ALBUMIN” (The Regents of the University of California, priority 2022, published 2026)",
  "biological_target": "T1, albumin in human serum (Homo sapiens, UniProt P02768)",
  "T1 construct": "tissue Sigma Aldrich; host or cells: human serum",
  "assay": "Conjugation to serum-borne HSA in human serum, SDS-PAGE fluorescence and Coomassie Blue",
  "assay_type": "biochemical",
  "method": "Protein SDS-PAGE gels were exposed at green channel (Exc.=490 nm, Emm.=525 nm), then stained by Coomassie Blue.\nTo 100 μl human serum was added 10 μl FC-LYL1 or 10 μl FC-Mal stock solution (1 mM). The albumin content in serum is presumed to be 600 μM for healthy donors. The final concentrations of albumin and FC-labeled reactive probes in the reaction mixture are calculated to be 545 µM and 91 μM, respectively. The serum/ligands mixture was incubated at 37° C. in dark. The conjugation reactions were setup every 3 days, and […] conjugation reactions were setup in total for 3 weeks. The serum mixtures were subjected to electrophoresis and Coommassie Blue Staining without further treatment. Since albumin to probe ratio was about 6:1 and there are 5 known fatty acid binding sites on each albumin molecule, fatty acid binding site:probe ratio was over […]. We therefore believe significant portion of the reactive probes would be sequestered in the “non-productive” (no covalent ligation) fatty acid binding sites most of the time.",
  "note": "Non-standard residues stand in square brackets, D forms with d. No end group written: not given here. *: point of attachment. Myristoyl = CCCCCCCCCCCCCC(=O)*; Aad = N[C@@H](CCCC(=O)O)C(=O)O; Acryloyl = C=CC(=O)*",
  "data": [
    {"substance": "FC-LYL1: FITC-tagged LYL1 (Myristoyl-[dE]DK(Acryloyl)[dS][Aad]; not fully specified (C-terminus); also: FITC on amino group of C-terminal lysine)", "values": [
      {"measurement": "reaction speed in human serum", "setting": "545 μM albumin, 91 μM probe, 37° C.", "value": "slow reaction over days"},
      {"measurement": "selectivity of protein labeling in serum", "setting": "human serum, SDS-PAGE green channel", "value": "can selectively label albumin content"}
    ]}
  ]
}
